{
  "source": "patent US20140335568",
  "key": {"[1]": {"test_system": "scFv clone C1 (anti-dsDNA d(AT)4 recombinant antibody) (synthetic (Tomlinson I/J human scFv phage library))", "assay": "ELONA", "settings": "ELISA"}, "[2]": {"test_system": "scFv clone C1 (anti-dsDNA d(AT)4 recombinant antibody) (synthetic (Tomlinson I/J human scFv phage library))", "assay": "competition", "settings": "competition ELISA against immobilized 35 bp dsDNA, 50% reduction, 1.25x10^7 M-1; discussion gives about 50-80 nM"}},
  "data": [
    {"sequence": "AAAAGACTCACTGTTTGTCTGTCGTTCTAGGATATATAT / ATATATATCCTAGAACGACAGACAAACAGTGAGTC [35 bp dsDNA epitope (ssDNA:ssDNA')]", "values": [
      {"measurement": "IC50", "setting": "[1]; varying immobilized dsDNA at fixed scFv (3 uM)", "result": 31, "unit": "nM"},
      {"measurement": "IC50", "setting": "[1]; varying scFv with 25 pmol immobilized dsDNA, single site isotherm, 5xSSCT immobilization, RT", "result": 238, "unit": "nM"}
    ]},
    {"sequence": "ATATATATCCTAGAACGACAGACAAACAGTGAGTCCGCATTGTTACAT (double strand) [Icomp (Icomp:Icomp')]", "values": [
      {"measurement": "Kd", "setting": "[2]", "result": 80, "unit": "nM"}
    ]}
  ]
}
